Assay results taken from PMC3591335.
Read-outs that look alike come from different tables or passages of the source.

Key:
[1] = biological target: Cholera toxin B subunit expressed in E. coli (eCTB) (Vibrio cholerae) (UniProt P01556); experiment: non-heat-denaturing SDS-PAGE
[2] = biological target: Cholera toxin B subunit expressed in E. coli (eCTB) (Vibrio cholerae) (UniProt P01556); experiment: non-heat-denaturing SDS-PAGE; remark: listed apart in the source

Substance: Cholera toxin B subunit expressed in E. coli (eCTB) (from UniProt P01556 22-124) (natural protein)
- stoichiometry N [1]: 5
- stoichiometry N [2]: 10
